1 molecule from US20130164214A1 can be followed below.

This test addresses HLA-DR (human). The test is described as follows: cell-based or functional assay.

B1: hL243γ4P (IMMU-114), humanized IgG4 anti-HLA-DR antibody (antibody, from a related filing, V domains shown)
VH: QVQLQQSGSELKKPGASVKVSCKASGFTFTNYGMNWVKQAPGQGLKWMGWINTYTREPTYADDFKGRFAFSLDTSVSTAYLQISSLKADDTAVYFCARDITAVVPTGFDYWGQGSLVTVSS
VL: DIQLTQSPSSLSASVGDRVTITCRASENIYSNLAWYRQKPGKAPKLLVFAASNLADGVPSRFSGSGSGTDYTFTISSLQPEDIATYYCQHFWTTPWAFGGGTKLQIKR
The molecule B1 returned a reduction of live mDC1 in human PBMCs after 3 days with antibody, flow cytometry of 59.2%; a reduction of live mDC2 in human PBMCs after 3 days with antibody, flow cytometry of 85%; a reduction of pDCs in human PBMCs, flow cytometry of 50%.
